Patent US20040106557A1
Each block holds one binder with its values, some of them ahead of it. Ends that are not written are not given here.

Experiments:
[1] = target: Prostate specific antigen (PSA), purified from human seminal fluid (human) (UniProt P07288); assay: inhibition IFMA: 200 µl fraction preincubated with PSA captured by MAb 5E4, then GST-C4 (167 nM); competitor GST-C-4
[2] = target: PSA-alpha-2-macroglobulin complex (PSA-A2M), purified (human) (UniProt P07288); assay: cell-based or functional assay

reduction of the binding of GST-peptide to PSA (%) [1]: 30%
B1: peptide cleaved from GST-C-4 by thrombin (about 3 kD, estimated 31 residues) (peptide, part only; not given: vector flanking residues, part only)
peptide, part: CVAYCIEHHCWTC

enzyme activity of A2M-complexed PSA (S-2586, OD 405 nm), 50-fold molar excess of peptide [2]: 2 fold
B2: chemically synthesized peptide C-4 with GA flanks (…) (peptide)
peptide: GACVAYCIEHHCWTCGA
modifications: disulfide (positions not given here); not fully specified (bridges); also: cyclic, disulphide bonds between cysteines, pairing of the four Cys not given here
